Measured values taken from the Immune Epitope Database (IEDB).

How the values were obtained:
Assay in all cases: IEDB peptide-MHC binding, purified MHC/competitive/radioactivity; filed as Kd, often an IC50 or EC50 that approximates it; ≥ and ≤ were set here for values at or beyond the usual limits of such assays
HLA-A*11:01 = target: HLA-A*11:01
HLA-A*68:01 = target: HLA-A*68:01
HLA-A*31:01 = target: HLA-A*31:01
HLA-A*03:01 = target: HLA-A*03:01
HLA-A*33:01 = target: HLA-A*33:01
[1] = source organism: Vaccinia virus WR
[2] = source organism: Dengue virus 4 Philippines/H241/1956
[3] = source organism: Dengue virus 2 Jamaica/1409/1983
[4] = source organism: Dengue virus 3 Martinique/1243/1999
[5] = source organism: SARS coronavirus ZJ0301
[6] = source organism: Dengue virus 1 Brazil/97-11/1997
[7] = source organism: SARS coronavirus Tor2
[8] = source organism: Vaccinia virus Copenhagen
[9] = source organism: Mammarenavirus brazilense
[10] = source organism: Mammarenavirus whitewaterense
[11] = source organism: Lymphocytic choriomeningitis virus (strain Armstrong)
[12] = source organism: Dengue virus 3 Sri Lanka/1266/2000
[13] = source organism: Dengue virus 2 Peru/IQT2913/1996

## KIAPGIADIR
HLA-A*11:01; [1]
  Kd: 4510 nM
HLA-A*68:01; [1]
  Kd: 5400 nM
HLA-A*31:01; [1]
  Kd: 355 nM
HLA-A*03:01; [1]
  Kd: 1660 nM
HLA-A*33:01; [1]
  Kd: ≥ 53900 nM

## KIEEIEKVEK
HLA-A*11:01; [1]
  Kd: 709 nM
HLA-A*68:01; [1]
  Kd: 417 nM
HLA-A*31:01; [1]
  Kd: 9010 nM
HLA-A*03:01; [1]
  Kd: 1520 nM
HLA-A*33:01; [1]
  Kd: ≥ 47000 nM

## KLGEFGRAK
HLA-A*03:01; [2]
  Kd: 1.75 nM

## KSSSIDVDK
HLA-A*11:01; [1]
  Kd: 161 nM
HLA-A*68:01; [1]
  Kd: 8590 nM
HLA-A*31:01; [1]
  Kd: 17700 nM
HLA-A*03:01; [1]
  Kd: 14200 nM
HLA-A*33:01; [1]
  Kd: ≥ 77700 nM

## LFLEEMLRTR
HLA-A*31:01; [3]
  Kd: 732 nM
HLA-A*33:01; [3]
  Kd: 685 nM

## LFMALVAFLR
HLA-A*68:01; [3]
  Kd: 192 nM
HLA-A*31:01; [3]
  Kd: 95.5 nM
HLA-A*33:01; [3]
  Kd: 93.2 nM

## LFMEMFFDY
HLA-A*11:01; [1]
  Kd: ≥ 59500 nM
HLA-A*68:01; [1]
  Kd: ≥ 70200 nM
HLA-A*31:01; [1]
  Kd: 13000 nM
HLA-A*03:01; [1]
  Kd: ≥ 37600 nM
HLA-A*33:01; [1]
  Kd: ≥ 56100 nM

## LFTSTNDKIK
HLA-A*11:01; [1]
  Kd: 915 nM
HLA-A*68:01; [1]
  Kd: 531 nM
HLA-A*31:01; [1]
  Kd: ≥ 65600 nM
HLA-A*03:01; [1]
  Kd: ≥ 24900 nM
HLA-A*33:01; [1]
  Kd: ≥ 55200 nM

## LFYPSMFTLR
HLA-A*11:01; [1]
  Kd: 7330 nM
HLA-A*68:01; [1]
  Kd: 2.66 nM
HLA-A*31:01; [1]
  Kd: 1.33 nM
HLA-A*03:01; [1]
  Kd: 1590 nM
HLA-A*33:01; [1]
  Kd: 28.9 nM

## LISYGGGWK
HLA-A*03:01; [3]
  Kd: 338 nM

## LLACTDPSER
HLA-A*11:01; [1]
  Kd: ≥ 37000 nM
HLA-A*68:01; [1]
  Kd: 856 nM
HLA-A*31:01; [1]
  Kd: 1260 nM
HLA-A*03:01; [1]
  Kd: ≥ 70100 nM
HLA-A*33:01; [1]
  Kd: 2420 nM

## LLALNDMGK
HLA-A*03:01; [4]
  Kd: 294 nM

## LLMHLVSLYK
HLA-A*11:01; [1]
  Kd: 0.379 nM
HLA-A*68:01; [1]
  Kd: 17.5 nM
HLA-A*31:01; [1]
  Kd: 85.1 nM
HLA-A*03:01; [1]
  Kd: 1.22 nM
HLA-A*33:01; [1]
  Kd: 15800 nM

## LLNSNALLR
HLA-A*11:01; [5]
  Kd: 222 nM
HLA-A*68:01; [5]
  Kd: 687 nM
HLA-A*31:01; [5]
  Kd: 148 nM
HLA-A*03:01; [5]
  Kd: 14.7 nM
HLA-A*33:01; [5]
  Kd: 6980 nM

## LLPSTDVNK
HLA-A*11:01; [1]
  Kd: 5540 nM
HLA-A*68:01; [1]
  Kd: 6950 nM
HLA-A*31:01; [1]
  Kd: 17300 nM
HLA-A*03:01; [1]
  Kd: 5010 nM
HLA-A*33:01; [1]
  Kd: ≥ 77700 nM

## LLSCIRNASK
HLA-A*11:01; [1]
  Kd: 29.3 nM
HLA-A*68:01; [1]
  Kd: 195 nM
HLA-A*31:01; [1]
  Kd: 822 nM
HLA-A*03:01; [1]
  Kd: 66.2 nM
HLA-A*33:01; [1]
  Kd: 16700 nM

## LMKSLGGGR
HLA-A*31:01; [6]
  Kd: ≥ 57600 nM

## LTPIFSDLLK
HLA-A*11:01; [1]
  Kd: 2.37 nM
HLA-A*68:01; [1]
  Kd: 17.2 nM
HLA-A*31:01; [1]
  Kd: 4120 nM
HLA-A*03:01; [1]
  Kd: 24.1 nM
HLA-A*33:01; [1]
  Kd: 3900 nM

## MAVEVGSIR
HLA-A*11:01; [1]
  Kd: 39.5 nM
HLA-A*68:01; [1]
  Kd: 1.36 nM
HLA-A*31:01; [1]
  Kd: 279 nM
HLA-A*03:01; [1]
  Kd: ≥ 78000 nM
HLA-A*33:01; [1]
  Kd: 245 nM

## MIEEVMRSR
HLA-A*33:01; [6]
  Kd: 90.8 nM

## MLVTPSMAMR
HLA-A*68:01; [6]
  Kd: 32 nM
HLA-A*31:01; [6]
  Kd: ≥ 51700 nM
HLA-A*33:01; [6]
  Kd: 34.6 nM

## MVSRLLLNR
HLA-A*11:01; [4]
  Kd: 49.9 nM
HLA-A*68:01; [4]
  Kd: 13 nM
HLA-A*31:01; [4]
  Kd: 4.81 nM
HLA-A*33:01; [4]
  Kd: 8.31 nM

## NATFFIFNK
HLA-A*11:01; [7]
  Kd: 87.3 nM
HLA-A*68:01; [7]
  Kd: 19.5 nM
HLA-A*31:01; [7]
  Kd: 1710 nM
HLA-A*03:01; [7]
  Kd: 386 nM
HLA-A*33:01; [7]
  Kd: 87.3 nM

## NFITKEIKNR
HLA-A*11:01; [1]
  Kd: ≥ 69800 nM
HLA-A*68:01; [1]
  Kd: 526 nM
HLA-A*31:01; [1]
  Kd: 1070 nM
HLA-A*03:01; [1]
  Kd: ≥ 70100 nM
HLA-A*33:01; [1]
  Kd: 168 nM

## NFLRSIAMLK
HLA-A*11:01; [1]
  Kd: 316 nM
HLA-A*68:01; [1]
  Kd: 272 nM
HLA-A*31:01; [1]
  Kd: 9.91 nM
HLA-A*03:01; [1]
  Kd: 74.6 nM
HLA-A*33:01; [1]
  Kd: 70 nM

## NISFKSINK
HLA-A*11:01; [1]
  Kd: 41.3 nM
HLA-A*68:01; [1]
  Kd: 119 nM
HLA-A*31:01; [1]
  Kd: 9770 nM
HLA-A*03:01; [1]
  Kd: 14.9 nM
HLA-A*33:01; [1]
  Kd: 3180 nM

## NLCTHSFRK
HLA-A*11:01; [7]
  Kd: 7900 nM
HLA-A*68:01; [7]
  Kd: ≥ 24400 nM
HLA-A*31:01; [7]
  Kd: 13600 nM
HLA-A*03:01; [7]
  Kd: 2430 nM
HLA-A*33:01; [7]
  Kd: 9700 nM

## NLLVQYGAK
HLA-A*11:01; [1]
  Kd: 12600 nM
HLA-A*68:01; [1]
  Kd: 2490 nM
HLA-A*31:01; [1]
  Kd: ≥ 20800 nM
HLA-A*03:01; [1]
  Kd: 274 nM
HLA-A*33:01; [1]
  Kd: ≥ 22300 nM

## NSVANRSKQK
HLA-A*11:01; [1]
  Kd: 525 nM
HLA-A*68:01; [1]
  Kd: 568 nM
HLA-A*31:01; [1]
  Kd: 17000 nM
HLA-A*03:01; [1]
  Kd: 322 nM
HLA-A*33:01; [1]
  Kd: ≥ 70000 nM

## NTFVNFNSVK
HLA-A*11:01; [8]
  Kd: 65.9 nM
HLA-A*68:01; [8]
  Kd: 39.8 nM
HLA-A*31:01; [8]
  Kd: 1670 nM
HLA-A*03:01; [8]
  Kd: 74.6 nM
HLA-A*33:01; [8]
  Kd: 856 nM

## NYILCYRKPH
HLA-A*11:01; [9]
  Kd: ≥ 69700 nM
HLA-A*68:01; [9]
  Kd: ≥ 24500 nM
HLA-A*31:01; [9]
  Kd: 11600 nM
HLA-A*03:01; [9]
  Kd: 5310 nM
HLA-A*33:01; [9]
  Kd: 2200 nM

## NYLDYMTSMK
HLA-A*33:01; [6]
  Kd: 173 nM

## PMPCMINDTH
HLA-A*11:01; [10]
  Kd: ≥ 69700 nM
HLA-A*68:01; [10]
  Kd: ≥ 70100 nM
HLA-A*31:01; [10]
  Kd: ≥ 70000 nM
HLA-A*03:01; [10]
  Kd: ≥ 70000 nM
HLA-A*33:01; [10]
  Kd: ≥ 70000 nM

## QAEPSLYGRH
HLA-A*11:01; [9]
  Kd: ≥ 69700 nM
HLA-A*68:01; [9]
  Kd: ≥ 70100 nM
HLA-A*31:01; [9]
  Kd: ≥ 20000 nM
HLA-A*03:01; [9]
  Kd: ≥ 70000 nM
HLA-A*33:01; [9]
  Kd: ≥ 70000 nM

## QFKQDSKYSH
HLA-A*11:01; [11]
  Kd: ≥ 69700 nM
HLA-A*68:01; [11]
  Kd: ≥ 70100 nM
HLA-A*31:01; [11]
  Kd: 13000 nM
HLA-A*03:01; [11]
  Kd: ≥ 70000 nM
HLA-A*33:01; [11]
  Kd: 2910 nM

## RMLNILNGR
HLA-A*31:01; [2]
  Kd: 1.16 nM

## RVSTPQGLVK
HLA-A*11:01; [2]
  Kd: 54.2 nM
HLA-A*03:01; [2]
  Kd: 5.93 nM

## SIFAGHLKCR
HLA-A*33:01; [4]
  Kd: 116 nM

## TAMAFHLSTR
HLA-A*68:01; [2]
  Kd: 8.51 nM
HLA-A*31:01; [2]
  Kd: 34.3 nM
HLA-A*33:01; [2]
  Kd: 16.7 nM

## TIFTLTVAWR
HLA-A*68:01; [12]
  Kd: 87.3 nM
HLA-A*31:01; [12]
  Kd: 395 nM
HLA-A*33:01; [12]
  Kd: 391 nM

## TSEVHWNYK
HLA-A*11:01; [2]
  Kd: 84.9 nM

## VIDPRRCLK
HLA-A*11:01; [6]
  Kd: 1500 nM
HLA-A*03:01; [6]
  Kd: 49.3 nM

## VMAFHLTTR
HLA-A*31:01; [13]
  Kd: 7.39 nM
HLA-A*03:01; [13]
  Kd: 51.7 nM

## VTNHMEGEHK
HLA-A*11:01; [3]
  Kd: 508 nM

## YLALIATFK
HLA-A*68:01; [4]
  Kd: 31.8 nM
HLA-A*03:01; [4]
  Kd: 4.7 nM
